Results reported in patent publication US20100196361A1, “Method of inhibition of vascular development using an antibody” (DYAX CORP., priority 2003, published 2010).
Numbering of substitutions follows the chain as printed. Where two headings read alike, the source gives them in different places.

B1: E3: human anti-Tie1 antibody from phage Fab library, reformatted as IgG; HC variable SEQ ID NO:114, LC variable SEQ ID NO:116 (antibody, V domains shown)
VH: EVQLLESGGGLVQPGGSLRLSCAASGFTFSMYGMVWVRQAPGKGLEWVSVISPSGGNTGYADSVKGRFTISRDNSKNTLYLQVNSLRAEDTAVYYCARAPRGYSYGYYYWGQGTLVTVSSASTKGPSVFPLAPSSKSTSGG
VL: DIQMTQSPLSLSASVGDRVTITCRASQGIGHYLAWYQQKPGKVPKLLIYTASTLQSGVPSRFSGSGSGTDFTLTINSLQPEDVATYYCQQFNSYPHTFGQGTRLDIK
modifications: IgG constant regions; Synthetically generated peptide
B2: germlined E3 Fab: soluble Fab of E3 with LC framework regions germlined to DPK4; LC variable SEQ ID NO:159 (antibody, V domains shown)
VH: B1 VH
VL: B1 VL with L9S, N76S, D105E
B3: DX-2210: E3 antibody in which the light chain has been germlined (antibody, V domains shown)
VH: B1 VH
VL: B1 VL with L9S, N76S, D105E
B4: parental E3 Fab: soluble Fab fragment of the parental E3 anti-Tie1 antibody (antibody, V domains shown)
VH: B1 VH
VL: B1 VL

Experiments:
[1] = molecular target: T1, mouse Tie1 (Mus musculus, UniProt Q06806); assay: Flow cytometry on mouse endothelial cell lines; type: binding; settings: MS1, Le-2, Bend3, SVEC, biotinylated antibody
T1 construct: host or cells: MS1, Le-2, Bend3, SVEC
T1 sequence (Q06806 23-1134): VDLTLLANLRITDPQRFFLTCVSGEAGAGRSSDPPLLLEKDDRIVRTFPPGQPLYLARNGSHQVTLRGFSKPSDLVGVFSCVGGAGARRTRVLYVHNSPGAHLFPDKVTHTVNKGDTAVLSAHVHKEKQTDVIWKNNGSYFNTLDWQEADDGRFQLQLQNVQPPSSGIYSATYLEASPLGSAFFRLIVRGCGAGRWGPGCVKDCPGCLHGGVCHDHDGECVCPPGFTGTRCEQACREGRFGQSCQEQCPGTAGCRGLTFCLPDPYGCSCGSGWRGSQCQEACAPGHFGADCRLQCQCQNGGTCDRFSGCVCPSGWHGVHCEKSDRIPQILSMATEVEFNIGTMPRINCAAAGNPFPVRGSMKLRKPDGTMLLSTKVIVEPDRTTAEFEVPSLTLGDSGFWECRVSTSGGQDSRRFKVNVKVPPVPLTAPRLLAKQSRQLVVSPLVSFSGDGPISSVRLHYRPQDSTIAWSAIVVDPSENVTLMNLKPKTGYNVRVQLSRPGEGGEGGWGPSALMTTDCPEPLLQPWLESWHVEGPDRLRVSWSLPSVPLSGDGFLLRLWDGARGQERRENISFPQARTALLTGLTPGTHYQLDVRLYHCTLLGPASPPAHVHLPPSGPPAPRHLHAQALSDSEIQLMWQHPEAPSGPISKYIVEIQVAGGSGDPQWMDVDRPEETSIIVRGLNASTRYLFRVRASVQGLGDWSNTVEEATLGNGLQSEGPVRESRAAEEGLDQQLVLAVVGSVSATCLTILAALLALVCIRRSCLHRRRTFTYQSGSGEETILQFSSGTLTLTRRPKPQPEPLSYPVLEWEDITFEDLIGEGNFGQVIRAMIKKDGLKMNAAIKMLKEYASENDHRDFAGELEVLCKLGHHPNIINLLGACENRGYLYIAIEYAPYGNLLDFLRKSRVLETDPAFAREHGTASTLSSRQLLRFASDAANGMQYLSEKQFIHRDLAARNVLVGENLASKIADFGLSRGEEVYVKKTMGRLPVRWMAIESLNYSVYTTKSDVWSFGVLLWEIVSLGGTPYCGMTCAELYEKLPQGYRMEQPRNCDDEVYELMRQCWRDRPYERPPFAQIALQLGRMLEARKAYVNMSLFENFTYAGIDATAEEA
Procedure: We evaluated if E3 cross reacts with mouse Tie1 in situ and thus if we can evaluate E3 activity in mouse tumor xenograft models binding to mouse endothelial cells was tested and compared with human and transfected cell lines.
Specific binding of the Tie1 antibodies and of control Mabs to mouse endothelial cells was measured by flow cytometry analysis (FACSscan, Becton Dickinson, Oxnard, Epics, Coulter). Mouse endothelial cell lines MS1, Le-2, Bend3, SVEC (ATCC, Rockville) and Tie1 transfected Le-2 cells were stained. Cell staining was modified from existing protocols. About 200,000 cells were used in each experiment: after trypsinization, cells were washed one time in PBS and resuspended PBS, 10% heat inactivated human serum (incubation buffer). […] After the final incubation step bound antibodies were detected by means of flow cytometry on a FACSCan and Epics Altra (Becton Dickinson, Oxnard, Coulter) and results analyzed.
Intracellular Tie1 was measured as described above, except for the addition of Saponin to the incubation buffer to a final concentration of 0.1% during incubations. […] The binding pattern in mouse cell lines detected by flow cytometry is different from the binding pattern in HUVEC in that in mouse cells there is a greater cell surface staining than that compared to primary human endothelial cell lines. […]

[2] = test system: platelets; assay: Platelet agglutination and aggregation; type: cell-based
Text: It has been reported that Tie1 is expressed on platelets ([…] et al. (2000) J. Vasc. Res. 37(6):437). The possibility of platelet immunoreactivity with the E3 anti-Tie1 antibody was investigated by FACs analysis and immunoprecipitation studies. […] In addition, the effect of DX-2200 and DX-2210 on platelet agglutination and aggregation was investigated. Ristocetin, a cofactor that induces platelet agglutination by mediating the binding of von Willebrand factor (vWF) to platelet membrane glycoprotein GPIb (CD42), was used as a positive control for platelet agglutination.

[3] = molecular target: T2, human Tie1 Fc (Homo sapiens, UniProt P35590); assay: BIAcore, Fab over biotinylated Tie1-Fc on streptavidin chip; type: binding; settings: Fab analyte; for kon: 830 RU
T2 construct: selected against the Tie1 extracellular domain fused to human Fc or to a histidine purification tag
T2 sequence (P35590 22-759 limits assumed): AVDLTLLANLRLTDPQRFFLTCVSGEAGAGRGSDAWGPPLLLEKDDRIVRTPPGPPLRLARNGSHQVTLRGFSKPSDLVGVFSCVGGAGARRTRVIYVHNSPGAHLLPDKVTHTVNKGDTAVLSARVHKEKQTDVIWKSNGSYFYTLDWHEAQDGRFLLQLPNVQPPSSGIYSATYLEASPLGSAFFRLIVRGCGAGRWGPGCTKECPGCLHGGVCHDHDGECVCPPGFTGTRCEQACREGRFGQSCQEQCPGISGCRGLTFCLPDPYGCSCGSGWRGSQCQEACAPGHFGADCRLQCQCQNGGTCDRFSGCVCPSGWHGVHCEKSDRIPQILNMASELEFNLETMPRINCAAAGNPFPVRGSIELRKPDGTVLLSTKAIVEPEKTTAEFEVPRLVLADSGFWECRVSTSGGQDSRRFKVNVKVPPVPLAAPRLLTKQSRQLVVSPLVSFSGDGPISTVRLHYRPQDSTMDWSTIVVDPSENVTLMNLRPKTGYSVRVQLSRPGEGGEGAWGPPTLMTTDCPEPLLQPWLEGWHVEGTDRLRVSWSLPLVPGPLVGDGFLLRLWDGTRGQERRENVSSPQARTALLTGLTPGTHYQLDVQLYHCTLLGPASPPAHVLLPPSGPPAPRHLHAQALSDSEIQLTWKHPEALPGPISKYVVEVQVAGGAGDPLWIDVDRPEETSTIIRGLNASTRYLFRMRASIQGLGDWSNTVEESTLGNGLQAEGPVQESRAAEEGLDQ
Procedure: Recombinant purified human Tie1-Fc antigen (Stock 2.45 mg/ml) was biotinylated using the EZ-link Sulfo-NHS-SS-Biotin (Pierce, Cat. 21331). The reaction was performed for 2 hours on ice in 50 mM sodium carbonate buffer, pH 9.6, in the presence of a 5-fold molar excess of biotinylating agent and was stopped by the addition of Tris-HCl, pH 7.5 (50 mM final concentration) followed by a 1-hour incubation on ice. Samples were then dialyzed against PBS. The antigen was then diluted 1/100 fold in HBS and was then captured onto a streptavidin chip. This was coated to a density of 830RU (resonance units). All analysis was performed in HBS buffer. The parental Fab E3 and germlined E3 Fab were prepared as described above. A stock solution of 0.587 mg/ml (11740 nM) was diluted 1/587 in HBS+BSA to obtain a stock of 20 nM and the germlined Fab E3 0.025 mg/ml (500 nM) was diluted 1/25 in HBS+BSA to obtain a stock of 20 nM. Serial dilutions were made of each Fab preparation to obtain 10 nM, 5 nM, 2.5 nM, and 1.25 nM solutions. For the association phase samples were injected at 30 μl/min for 4 minutes using kinject program. This was followed by a 10 minutes dissociation phase, any remaining sample was stripped from the Tie1 Fc surface at a flow of 50 μl/min with a single injection of 5 mM NaOH+1M NaCl for 18 seconds. All samples were run and analyzed in duplicate.
Sensorgrams were analyzed using the simultaneous ka/kd fitting program with 1:1 model in the BIAEVALUATION™ software 3.1.

Molecule | binding to mouse endothelial cell lines [1] | induction of platelet agglutination or aggregation ([2]; ristocetin and anti-CD9 as positive controls) | koff [3] [s⁻¹] | kon [3] [M⁻¹ s⁻¹] | induction of platelet agglutination or aggregation [2]
B1 | binds to mouse endothelial cell lines | Neither the DX-2200 nor its light chain germlined variant DX-2210 induced platelet agglutination or aggregation |  |  | 
B2 |  |  | 0.00102 | 300000 | 
B3 | stained positively |  |  |  | Neither the DX-2200 nor its light chain germlined variant DX-2210 induced platelet agglutination or aggregation
B4 |  |  | 0.00061 | 300000 | 
